{"source": "paper PMC5770610", "about": "“Structure and function of urea amidolyase” (Bioscience Reports, 2018)", "key": {"[1]": {"substrate": "NC(=O)NC(=O)O", "experiment": "glutamate dehydrogenase-coupled NADH assay of ammonium", "type": "biochemical, Kluyveromyces lactis", "settings": "AH activity, 6 mM MgCl2, 20 mM KCl, pH 8.0, substrate as potassium salt, mutation at AH dimer interface", "source_text": "(§1) glutamate dehydrogenase-coupled NADH assay of ammonium on KlUA"}, "[2]": {"substrate": "NC(N)=O", "experiment": "glutamate dehydrogenase-coupled NADH assay of ammonium", "type": "biochemical, Kluyveromyces lactis", "settings": "overall UA activity, 5 mM ATP, 12.5 mM bicarbonate, 11 mM MgCl2, 20 mM KCl", "source_text": "as §1"}, "[3]": {"settings": "pH 8.0, mutation at AH dimer interface"}, "[4]": {"settings": "pH 8.0, mutation in UC CT active site"}, "[5]": {"settings": "pH 8.0, mutation in AH N domain active site"}}, "data": [{"protein": "KlUA (Kluyveromyces lactis NRRL Y-1140; G559E/G572E) (protein, full-length enzyme, AH + UC domains; recombinant in E. coli BL21(DE3) Star (pET28A, nickel column); homodimer, monomer 202 kDa) MESTLGWSVQDWLSFHSKSTPTKSLELLENLLKSQKPAPEDPAWISLIPVEDLHHQWNILQSKSNKEELPLYGVPIAVKDNIDYKGLPTTAACPSYLYQPTRDSYVVELLRDAGAVVIGKTNLDQFATGLVGTRSPYGKTPCVFNDKYVSGGSSAGSASVVGRGIVPLSLGTDTAGSGRVPAALNNLIGLKPTKGAFSCRGVVPACKSLDCVSVFALNLSDAEIAFKVMNKPDLLEDEYSREFPKNPISQYPKDLTIAIPKEVPWFGETENPKLYTKAVASLKNTGAKIVVVDFEPLLELARCLYEGAWVAERYCATRDFLATNPPESSLDETVVNIIKGAVKFDAADAFKFEYKRQGILQKVNLLLKDIDVLCVPTCPLNPKLEEVAQEPVLVNSRQGTWTNFVNLADLAALAVPSGFRSDGLPNGITLIGKKFSDYALLDLAKRFFSVAFPNNSRTYGKFVDRRITVEDELDGPSKDTLNGVKLAVVGAHLKGLPLHWQLQKCNATYLSSPKTSNNYKLYALPKVGPVLKPGLRRVNDGTGSQIQLEVYSVPYDRFEDFIAMVPEPLGIESVELESGEWVKSFICEEFGYTQQGTVDITKFGGFKPYIEHIQVTEAQKKKPFETVLIANRGEIAVRIMKTLKRMGIKSVAVYSDPDKYSQHVTDADFSVALHGRTAAETYLDIDKIINAAKKTGAQAIIPGYGFLSENADFSDRCSQENIVFVGPSGDAIRKLGLKHSAREIAERAKVPLVPGSGLIKDAKEAKEVAKKLEYPVMVKSTAGGGGIGLQKVDSEDDIERVFETVQHQGKSYFGDAGVFMERFVNNARHVEIQMMGDGFGKAIAIGERDCSLQRRNQKVIEETPAPNLPEATRAKMRAASERLGSLLKYKCAGTVEFIYDEQRDEFYFLEVNARLQVEHPITEMVTGLDLVEWMLRIAANDSPDFDNTKIEVSGASIEARLYAENPVKDFRPSPGQLTSVSFPSWARVDTWVKKGTNVSAEYDPTLAKIIVHGKDRNDAIMKLNQALNETAVYGCITNIDYLRSIASSKMFKEAKVATKVLDSFDYKPCAFEVLAPGANTSVQDYPGRTGYWRIGVPPSGPMDSYSFRLANRVVGNNSKSPALEITLNGPKLLFHTETVIAVSGGTVSCTLNDAQIAQNEPIEVKRGDILSVGKVTVGCRAYLSIRGGIDVPEYLGSRSTFAMGNMGGYNGRILKLGDVLFLNQPELSVSSLPAPDFEPQAAPKSLLPTLSTNKDWKIGVTCGPHGSIDLFKEEYIEQFFNDKWKVHYNSNRFGVRLIGPKPKWARSDGGEAGLHPSNAHDYVYSLGAINFTGDEPVIITCDGPSLGGFVCQAVVAEAELWKVGQLTPGDTIQFVPLSYGVARQLKESQDKSIDNFEEGSLLELSDDKILPKYENPILAVLPKKSDLSPKVTYRQAGDRYILVEYGELEFDLNICYRINRLIHQVERHQTVGIVEMSQGVRSVLIEFDGSKINQKALLKCLIAYESEIQFDKNWNVKSKIFKLPMAFEDSKTLDCVTRYRETIRSEAPWLPNNVDFIADVNDIDRNDVKNMLYSAKFMVLGLGDVFLGSPCAVPLDPRHRYLGTKYNPSRTYTARGVVGIGGMYMCIYNAEGSPGGYQLVGRTITAWDKLVIGDHPIDHPWLLTPFDQVEFYPVTEEELEVIIEDNDNGKFKIDVEESIFDHKEYLAWINENIDSIVAFQEAQGGEKADEFARLIQVANAELKKSGDDKPQDVEEYPDDAELLYSEYTGRFWKPVAAVGDHVEAGDGVIIIEAMKTEMVVGATKSGKVYKILHKNGDMVEAGDLVAVIV", "values": [{"measurement": "Km", "setting": "[1]", "value": "1040 ± 183", "unit": "µM"}, {"measurement": "kcat", "setting": "[1]", "value": "7.85 ± 0.367", "unit": "s⁻¹"}, {"measurement": "kcat/Km", "setting": "[1]", "value": "7550 ± 1680", "unit": "M⁻¹ s⁻¹"}, {"measurement": "Km", "setting": "[2]; [3]", "value": "361 ± 32", "unit": "µM"}, {"measurement": "kcat", "setting": "[2]; [3]", "value": "3 ± 0.0533", "unit": "s⁻¹"}, {"measurement": "kcat/Km", "setting": "[2]; [3]", "value": "8320 ± 900", "unit": "M⁻¹ s⁻¹"}]}, {"protein": "KlUA (Kluyveromyces lactis NRRL Y-1140; K1605A) (protein, full-length enzyme, AH + UC domains; recombinant in E. coli BL21(DE3) Star (pET28A, nickel column); homodimer, monomer 202 kDa) MESTLGWSVQDWLSFHSKSTPTKSLELLENLLKSQKPAPEDPAWISLIPVEDLHHQWNILQSKSNKEELPLYGVPIAVKDNIDYKGLPTTAACPSYLYQPTRDSYVVELLRDAGAVVIGKTNLDQFATGLVGTRSPYGKTPCVFNDKYVSGGSSAGSASVVGRGIVPLSLGTDTAGSGRVPAALNNLIGLKPTKGAFSCRGVVPACKSLDCVSVFALNLSDAEIAFKVMNKPDLLEDEYSREFPKNPISQYPKDLTIAIPKEVPWFGETENPKLYTKAVASLKNTGAKIVVVDFEPLLELARCLYEGAWVAERYCATRDFLATNPPESSLDETVVNIIKGAVKFDAADAFKFEYKRQGILQKVNLLLKDIDVLCVPTCPLNPKLEEVAQEPVLVNSRQGTWTNFVNLADLAALAVPSGFRSDGLPNGITLIGKKFSDYALLDLAKRFFSVAFPNNSRTYGKFVDRRITVEDELDGPSKDTLNGVKLAVVGAHLKGLPLHWQLQKCNATYLSSPKTSNNYKLYALPKVGPVLKPGLRRVNDGTGSQIQLEVYSVPYDRFGDFIAMVPEPLGIGSVELESGEWVKSFICEEFGYTQQGTVDITKFGGFKPYIEHIQVTEAQKKKPFETVLIANRGEIAVRIMKTLKRMGIKSVAVYSDPDKYSQHVTDADFSVALHGRTAAETYLDIDKIINAAKKTGAQAIIPGYGFLSENADFSDRCSQENIVFVGPSGDAIRKLGLKHSAREIAERAKVPLVPGSGLIKDAKEAKEVAKKLEYPVMVKSTAGGGGIGLQKVDSEDDIERVFETVQHQGKSYFGDAGVFMERFVNNARHVEIQMMGDGFGKAIAIGERDCSLQRRNQKVIEETPAPNLPEATRAKMRAASERLGSLLKYKCAGTVEFIYDEQRDEFYFLEVNARLQVEHPITEMVTGLDLVEWMLRIAANDSPDFDNTKIEVSGASIEARLYAENPVKDFRPSPGQLTSVSFPSWARVDTWVKKGTNVSAEYDPTLAKIIVHGKDRNDAIMKLNQALNETAVYGCITNIDYLRSIASSKMFKEAKVATKVLDSFDYKPCAFEVLAPGANTSVQDYPGRTGYWRIGVPPSGPMDSYSFRLANRVVGNNSKSPALEITLNGPKLLFHTETVIAVSGGTVSCTLNDAQIAQNEPIEVKRGDILSVGKVTVGCRAYLSIRGGIDVPEYLGSRSTFAMGNMGGYNGRILKLGDVLFLNQPELSVSSLPAPDFEPQAAPKSLLPTLSTNKDWKIGVTCGPHGSIDLFKEEYIEQFFNDKWKVHYNSNRFGVRLIGPKPKWARSDGGEAGLHPSNAHDYVYSLGAINFTGDEPVIITCDGPSLGGFVCQAVVAEAELWKVGQLTPGDTIQFVPLSYGVARQLKESQDKSIDNFEEGSLLELSDDKILPKYENPILAVLPKKSDLSPKVTYRQAGDRYILVEYGELEFDLNICYRINRLIHQVERHQTVGIVEMSQGVRSVLIEFDGSKINQKALLKCLIAYESEIQFDKNWNVKSKIFKLPMAFEDSKTLDCVTRYRETIRSEAPWLPNNVDFIADVNDIDRNDVKNMLYSAKFMVLGLGDVFLGSPCAVPLDPRHRYLGTAYNPSRTYTARGVVGIGGMYMCIYNAEGSPGGYQLVGRTITAWDKLVIGDHPIDHPWLLTPFDQVEFYPVTEEELEVIIEDNDNGKFKIDVEESIFDHKEYLAWINENIDSIVAFQEAQGGEKADEFARLIQVANAELKKSGDDKPQDVEEYPDDAELLYSEYTGRFWKPVAAVGDHVEAGDGVIIIEAMKTEMVVGATKSGKVYKILHKNGDMVEAGDLVAVIV", "values": [{"measurement": "Km", "setting": "[2]; [4]", "value": "299 ± 39", "unit": "µM"}, {"measurement": "kcat", "setting": "[2]; [4]", "value": "1.33 ± 0.0333", "unit": "s⁻¹"}, {"measurement": "kcat/Km", "setting": "[2]; [4]", "value": "4450 ± 683", "unit": "M⁻¹ s⁻¹"}]}, {"protein": "KlUA (Kluyveromyces lactis NRRL Y-1140; S177A) (protein, full-length enzyme, AH + UC domains; recombinant in E. coli BL21(DE3) Star (pET28A, nickel column); homodimer, monomer 202 kDa) MESTLGWSVQDWLSFHSKSTPTKSLELLENLLKSQKPAPEDPAWISLIPVEDLHHQWNILQSKSNKEELPLYGVPIAVKDNIDYKGLPTTAACPSYLYQPTRDSYVVELLRDAGAVVIGKTNLDQFATGLVGTRSPYGKTPCVFNDKYVSGGSSAGSASVVGRGIVPLSLGTDTAGAGRVPAALNNLIGLKPTKGAFSCRGVVPACKSLDCVSVFALNLSDAEIAFKVMNKPDLLEDEYSREFPKNPISQYPKDLTIAIPKEVPWFGETENPKLYTKAVASLKNTGAKIVVVDFEPLLELARCLYEGAWVAERYCATRDFLATNPPESSLDETVVNIIKGAVKFDAADAFKFEYKRQGILQKVNLLLKDIDVLCVPTCPLNPKLEEVAQEPVLVNSRQGTWTNFVNLADLAALAVPSGFRSDGLPNGITLIGKKFSDYALLDLAKRFFSVAFPNNSRTYGKFVDRRITVEDELDGPSKDTLNGVKLAVVGAHLKGLPLHWQLQKCNATYLSSPKTSNNYKLYALPKVGPVLKPGLRRVNDGTGSQIQLEVYSVPYDRFGDFIAMVPEPLGIGSVELESGEWVKSFICEEFGYTQQGTVDITKFGGFKPYIEHIQVTEAQKKKPFETVLIANRGEIAVRIMKTLKRMGIKSVAVYSDPDKYSQHVTDADFSVALHGRTAAETYLDIDKIINAAKKTGAQAIIPGYGFLSENADFSDRCSQENIVFVGPSGDAIRKLGLKHSAREIAERAKVPLVPGSGLIKDAKEAKEVAKKLEYPVMVKSTAGGGGIGLQKVDSEDDIERVFETVQHQGKSYFGDAGVFMERFVNNARHVEIQMMGDGFGKAIAIGERDCSLQRRNQKVIEETPAPNLPEATRAKMRAASERLGSLLKYKCAGTVEFIYDEQRDEFYFLEVNARLQVEHPITEMVTGLDLVEWMLRIAANDSPDFDNTKIEVSGASIEARLYAENPVKDFRPSPGQLTSVSFPSWARVDTWVKKGTNVSAEYDPTLAKIIVHGKDRNDAIMKLNQALNETAVYGCITNIDYLRSIASSKMFKEAKVATKVLDSFDYKPCAFEVLAPGANTSVQDYPGRTGYWRIGVPPSGPMDSYSFRLANRVVGNNSKSPALEITLNGPKLLFHTETVIAVSGGTVSCTLNDAQIAQNEPIEVKRGDILSVGKVTVGCRAYLSIRGGIDVPEYLGSRSTFAMGNMGGYNGRILKLGDVLFLNQPELSVSSLPAPDFEPQAAPKSLLPTLSTNKDWKIGVTCGPHGSIDLFKEEYIEQFFNDKWKVHYNSNRFGVRLIGPKPKWARSDGGEAGLHPSNAHDYVYSLGAINFTGDEPVIITCDGPSLGGFVCQAVVAEAELWKVGQLTPGDTIQFVPLSYGVARQLKESQDKSIDNFEEGSLLELSDDKILPKYENPILAVLPKKSDLSPKVTYRQAGDRYILVEYGELEFDLNICYRINRLIHQVERHQTVGIVEMSQGVRSVLIEFDGSKINQKALLKCLIAYESEIQFDKNWNVKSKIFKLPMAFEDSKTLDCVTRYRETIRSEAPWLPNNVDFIADVNDIDRNDVKNMLYSAKFMVLGLGDVFLGSPCAVPLDPRHRYLGTKYNPSRTYTARGVVGIGGMYMCIYNAEGSPGGYQLVGRTITAWDKLVIGDHPIDHPWLLTPFDQVEFYPVTEEELEVIIEDNDNGKFKIDVEESIFDHKEYLAWINENIDSIVAFQEAQGGEKADEFARLIQVANAELKKSGDDKPQDVEEYPDDAELLYSEYTGRFWKPVAAVGDHVEAGDGVIIIEAMKTEMVVGATKSGKVYKILHKNGDMVEAGDLVAVIV", "values": [{"measurement": "Km", "setting": "[2]; [5]", "value": "203 ± 20", "unit": "µM"}, {"measurement": "kcat", "setting": "[2]; [5]", "value": "0.785 ± 0.0133", "unit": "s⁻¹"}, {"measurement": "kcat/Km", "setting": "[2]; [5]", "value": "3870 ± 450", "unit": "M⁻¹ s⁻¹"}]}]}
